Drawing on article PMC2909260, this text covers % of inhibition of CXCR3 expression (flow cytometry) by sHLA-G on anti-CD3 stimulated CD4+ T cells, with blocking anti-ILT2/CD85j mAb (clone #292319, 1 ug/10^6 cells) added and % of inhibition of CXCR3 expression (flow cytometry) by sHLA-G on anti-CD3 stimulated CD4+ T cells, with isotype-matched control mAb added (reference for the anti-ILT2 blocking) for 1 substance.

In the assay the target is ILT2 (immunoglobulin-like transcript 2)/CD85j (human (endogenous in peripheral blood CD4+ T cells)) (UniProt Q8NHL6).
UniProt Q8NHL6, sequence (Q8NHL6 24-650): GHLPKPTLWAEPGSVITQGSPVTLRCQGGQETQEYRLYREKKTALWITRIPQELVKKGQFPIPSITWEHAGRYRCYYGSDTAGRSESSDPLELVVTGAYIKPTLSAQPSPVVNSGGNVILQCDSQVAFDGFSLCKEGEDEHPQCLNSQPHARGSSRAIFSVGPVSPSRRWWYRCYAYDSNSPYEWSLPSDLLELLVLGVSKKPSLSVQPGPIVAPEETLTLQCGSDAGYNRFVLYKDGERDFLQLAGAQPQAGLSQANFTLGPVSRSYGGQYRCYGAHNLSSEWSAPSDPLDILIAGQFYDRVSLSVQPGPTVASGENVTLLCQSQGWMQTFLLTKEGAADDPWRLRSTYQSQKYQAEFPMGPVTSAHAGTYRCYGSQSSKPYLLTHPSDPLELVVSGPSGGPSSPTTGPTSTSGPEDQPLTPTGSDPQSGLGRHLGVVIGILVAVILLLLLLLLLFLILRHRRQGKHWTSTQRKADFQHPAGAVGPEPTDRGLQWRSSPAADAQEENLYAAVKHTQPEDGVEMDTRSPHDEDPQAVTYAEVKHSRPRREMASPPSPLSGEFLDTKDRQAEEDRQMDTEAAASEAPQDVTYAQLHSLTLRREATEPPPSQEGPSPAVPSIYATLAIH

As to “soluble HLA-G (recombinant HLA-G1/G5 protein) (from UniProt P17693 25-308; P61769 21-119) (complex)”, the % of inhibition of CXCR3 expression (flow cytometry) by sHLA-G on anti-CD3 stimulated CD4+ T cells, with blocking anti-ILT2/CD85j mAb (clone #292319, 1 ug/10^6 cells) added amounted to 31.5% and the % of inhibition of CXCR3 expression (flow cytometry) by sHLA-G on anti-CD3 stimulated CD4+ T cells, with isotype-matched control mAb added (reference for the anti-ILT2 blocking) came to 47.5%.
